Laboratory results: patent US20230220071A1 (Hoffmann-La Roche, published 2023)
Numbering of substitutions follows the chain as printed. Blank lines part the entries; values can stand above or below the binder they belong to.

Legend:
[1] = target: T1, biotinylated human transferrin receptor (human, UniProt P02786 89-760, limits assumed, biotinylated (mono-biotinylated in Example 13)); experiment: SPR BIAcore B4000, biotinylated TfR captured, 25 C
T1 construct: also called human transferrin receptor-biotinylated; mono-biotinylated human transferrin receptor
T1 sequence (P02786 89-760 limits assumed): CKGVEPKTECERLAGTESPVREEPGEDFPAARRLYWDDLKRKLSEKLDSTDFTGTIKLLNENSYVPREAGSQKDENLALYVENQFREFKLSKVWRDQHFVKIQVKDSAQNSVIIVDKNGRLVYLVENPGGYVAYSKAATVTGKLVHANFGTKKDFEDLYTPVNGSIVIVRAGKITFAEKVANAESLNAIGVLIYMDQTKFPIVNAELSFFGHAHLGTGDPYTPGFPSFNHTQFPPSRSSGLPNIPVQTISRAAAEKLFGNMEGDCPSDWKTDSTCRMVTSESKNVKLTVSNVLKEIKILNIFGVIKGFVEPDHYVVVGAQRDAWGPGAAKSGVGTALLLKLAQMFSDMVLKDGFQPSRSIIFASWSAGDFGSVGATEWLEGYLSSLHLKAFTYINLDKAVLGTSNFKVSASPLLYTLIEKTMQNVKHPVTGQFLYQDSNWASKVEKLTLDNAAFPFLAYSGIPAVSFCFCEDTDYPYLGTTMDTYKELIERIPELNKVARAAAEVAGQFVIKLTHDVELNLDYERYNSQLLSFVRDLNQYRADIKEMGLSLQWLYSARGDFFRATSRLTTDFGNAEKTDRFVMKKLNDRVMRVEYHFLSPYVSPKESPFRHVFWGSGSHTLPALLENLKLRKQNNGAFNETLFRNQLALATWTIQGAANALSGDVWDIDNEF
Protocol: (§1) A CAP sensor chip (provided in the Biotin CAPture Kit, series S #28-9202-34 GE) was mounted into a BIAcore B4000 system, normalized and addressed in a hydrodynamic manner, according to the manufacturer's instructions. In the first cycle the CAP reagent (as provided in the Kit) was addressed to spot 1, 2, 4 and 5 with a flow rate of 10 μL/min for 300 sec. The human transferrin receptor capture took place in spot 1 (human transferrin receptor-biotinylated) and spot 5 (cynomolgus transferrin receptor-biotinylated) with a flow rate of 10 μL/min and a contact time of 30 sec. The receptors were diluted to a concentration of 50 nM with running buffer (1×PBS #28995084, GE Healthcare, supplemented with 0.25 M NaCl). The antibodies were injected into all flow cells in a concentration series of 100 nM, 50 nM, 25 nM and 0 nM for 180 sec at a flow speed of 30 μL/min. Dissociation time was set to 300 sec. Regeneration of the whole complex from the CAP chip has been performed utilizing the regeneration solution provided in the Biotin CAPture Kit (120 sec with a flow rate of 10 μL/min). To control the active protein concentration a second cycle was performed in spot 5 utilizing biotinylated protein A (#P2165-2MG, Sigma) with a flow rate of 10 μL/min and a contact time of 30 sec. Spot 1 was kept empty in this control cycle. The antibodies and the regeneration were handled like in cycle 1. Relevant kinetic data was calculated using the BIAcore B4000 evaluation software. The dissociation from the human transferrin receptor has been determined applying the 1:1 dissociation fit.

[2] = target: T2, human transferrin receptor (BIAcore, construct not stated) (human, UniProt P02786 89-760); experiment: SPR (BIAcore)
T2 construct: also called huTfR

[3] = target: T3, cynomolgus transferrin receptor (BIAcore, construct not stated) (cynomolgus, UniProt H9EXL1 89-760 (rhesus entry)); experiment: SPR (BIAcore)
T3 construct: also called cyTfR; Cyno TfR

[4] = target: T4, human transferrin receptor on stably transfected CHO-K1 cells (human, UniProt P02786 1-760); experiment: FACS on hTfR-CHO cells
T4 construct: whole, on cells; also called hTfR-CHO; huTfR

[5] = target: T5, cynomolgus transferrin receptor on stably transfected CHO-K1 cells (cynomolgus); experiment: FACS on cyTfR CHO cells
T5 construct: whole, on cells; also called Cyno TfR-CHO; cyTfR

[6] = target: T5, cynomolgus transferrin receptor on …; experiment: FACS, cyno TfR against human TfR
[7] = target: T2, human transferrin receptor (BIAcore, …); experiment: SPR (BIAcore), human TfR against cyno TfR
[8] = target: T6, biotinylated cynomolgus transferrin receptor (cynomolgus); experiment: SPR BIAcore T200, biotinylated TfR captured, 25 C
T6 chain: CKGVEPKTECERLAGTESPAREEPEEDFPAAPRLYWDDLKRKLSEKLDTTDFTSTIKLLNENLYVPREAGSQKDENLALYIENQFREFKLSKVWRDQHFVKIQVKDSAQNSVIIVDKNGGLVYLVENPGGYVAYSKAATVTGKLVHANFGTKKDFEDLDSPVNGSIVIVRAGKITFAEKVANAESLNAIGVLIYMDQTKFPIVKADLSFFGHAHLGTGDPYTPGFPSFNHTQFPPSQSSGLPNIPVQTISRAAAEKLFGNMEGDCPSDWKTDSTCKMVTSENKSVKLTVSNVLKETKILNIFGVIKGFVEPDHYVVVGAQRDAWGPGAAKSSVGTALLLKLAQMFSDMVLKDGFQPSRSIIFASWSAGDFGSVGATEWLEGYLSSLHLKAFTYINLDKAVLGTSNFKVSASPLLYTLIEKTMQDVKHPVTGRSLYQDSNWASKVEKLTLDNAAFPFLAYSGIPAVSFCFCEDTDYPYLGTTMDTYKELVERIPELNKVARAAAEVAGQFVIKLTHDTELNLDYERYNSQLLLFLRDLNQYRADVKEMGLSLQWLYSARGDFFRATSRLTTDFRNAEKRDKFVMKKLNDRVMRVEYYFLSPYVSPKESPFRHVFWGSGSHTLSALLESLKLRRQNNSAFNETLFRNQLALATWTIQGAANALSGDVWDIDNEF
Protocol: For all analysis the Biotin CAPture Kit from GE Healthcare (Instruction 28-9242-34 AB) was used. First the chip was rehydrated by docking it in the BIAcore T200 instrument. After that, the chip was left on standby with running buffer overnight. For surface preparation the Biotin CAPture Reagent was diluted 1:100 in running buffer (1×PBS, supplemented with 0.25 M NaCl). This solution was injected on Flow Cells 1 to 4 for 360 sec with a flow rate of 2 μL/min. Next the sensor surface was conditioned with three one-minute injections of regeneration solution provided in the Biotin CAPture Kit. This has to be done for the docking procedure or for the first time or after storage. A 100 nM human or cynomolgus, respectively, mono-biotinylated transferrin receptor solution should be injected on Flow Cell 2 for 30 sec at a flow rate of 10 μL/min. […] They were injected on the “hu-TfR-flow cell” (e.g. Flow Cell 2 as prepared as outlined above) with an injection time of 180 sec (association) and a flow rate of 10 μL/min. After dissociation phase of 600 sec the surface was regenerated according to the manufacturer's instructions with the regeneration solution provided in the Biotin CAPture Kit and the next cycle was carried out.
The kinetic data was evaluated using the BIAcore T200 evaluation software. Especially the dissociation rate constants of the different human transferrin receptor binders were taken into account after the application of the 1:1 Langmuir binding model.

[9] = target: T6, biotinylated cynomolgus transferrin …; experiment: SPR BIAcore B4000, biotinylated TfR captured, 25 C
Protocol: as §1

B1: VH23-DANG / VK2-SYS (antibody, V domains shown)
VH: QSMQESGPGLVKPSQTLSLTCTVSGFSLSSYAMSWIRQHPGKGLEWIGYIWSGGSTDYASWAKSRVTISKTSTTVSLKLSSVTAADTAVYYCARRYGTSYPDYGDANGFDPWGQGTLVTVSS
VL: DIQMTQSPSSLSASVGDRVTITCRASQSISSYLNWYQQKPGKAPKLLIYRASTLASGVPSRFSGSGSGTDFTLTISSLQPEDFATYYCQQSYSSSNVDNTFGGGTKVEIK
koff [1]: 0.00522 s⁻¹

B3: VH9-DANG / VK9-NYA (antibody, V domains shown)
VH: QQLLESGGGLVQPGGSLRLSCAASGFTFSSYAMSWVRQAPGKGLEWVGYIWSGGSTDYADSVKGRFTISRDNSKNTLYLQMNSLRAEDTAVYYCAKRYGTSYPDYGDANGFDPWGQGTLVTVSS
VL: B1 VL with D1A, M4L, N34A, S91N, S93A
koff [1]: 0.00182 s⁻¹

B4: VH7-DANG / VK6-SYS (antibody, V domains shown)
VH: B3 VH with L4V, S6T, V11I, T27S, F28L, V47I, D60S, S61W, V62A, K96R
VL: B1 VL with D1A, M4L, N34S
koff [1]: 0.0308 s⁻¹

B5: VH23-DANG / VK6-SYS (antibody, V domains shown)
VH: B1 VH
VL: B1 VL with D1A, M4L, N34S
koff [1]: 0.0132 s⁻¹

B8: VH9-DANG / VK2-SYS (antibody, V domains shown)
VH: B3 VH
VL: B1 VL
koff [1]: 0.0402 s⁻¹

Now from value to binder:

koff [1]: 0.00697 s⁻¹
B2: VH23-DANG / VK15-AYS (antibody, V domains shown)
VH: B1 VH
VL: DIVMTQSPDSLAVSLGERATINCKSSQSISSYLIWYQQKPGQPPKLLIYRASTLASGVPDRFSGSGSGTDFTLTISSLQAEDVAVYYCQQAYSSSNVDNTFGGGTKVEIK

koff [1]: 0.00229 s⁻¹
B6: VH23-DANG / VK17-TYS (antibody, V domains shown)
VH: B1 VH
VL: B1 VL with D1A, M4L, N34A, S91T

koff [1]: 0.0153 s⁻¹
B7: VH23-DANG / VK12-HYS (antibody, V domains shown)
VH: B1 VH
VL: B1 VL with N34A, G66R, S91H

koff [2]: 0.000606 s⁻¹
koff [3]: 0.0547 s⁻¹
EC50 [4]: 0.096 µg/mL
EC50 [5]: 0.314 µg/mL
ratio EC50 Cyno/human [6]: 3.3
ratio max Cyno/human [6]: 0.6
ratio t1/2 human/Cyno [7]: 90.2
Kd [8]: 136 nM
koff [8]: 0.0733 s⁻¹
kon [8]: 541000 M⁻¹ s⁻¹
koff [9]: 0.0778 s⁻¹
B9: murine anti-transferrin receptor antibody 128.1 (antibody, V domains shown)
VH: QVQLVQSGAEVKKPGASVKVSCKASGYTFTGYTMNWVRQAPGQGLEWMGRINPHNGGTDYAQKFQGRVTMTRDTSISTAYMELSRLRSDDTAVYYCARGYYYYSLDYWGQGTLVTVSS
VL: DIQMTQSPSSLSASVGDRVTITCRASSSIRYIHWYQQKPGKAPKRLIYDTSNLASGVPSRFSGSGSGTEFTLTISSLQPEDFATYYCHQRNSYPWTFGQGTRLEIK
notes: Mouse anti-human TfR antibody
